Target: actin filaments (F-actin) (UniProt P68135 1-377)
Test: co-sedimentation

B1: Coronin 1B (recombinant) (natural protein)
chain: MSFRKVVRQSKFRHVFGQPVKNDQCYEDIRVSRVTWDSTFCAVNPKFLAVIVEASGGGAFLVLPLSKTGRIDKAYPTVCGHTGPVLDIDWCPHNDEVIASGSEDCTVMVWQIPENGLTSPLTEPVVVLEGHTKRVGIIAWHPTARNVLLSAGCDNVVLIWNVGTAEELYRLDSLHPDLIYNVSWNHNGSLFCSACKDKSVRIIDPRRGTLVAEREKAHEGARPMRAIFLADGKVFTTGFSRMSERQLALWDPENLEEPMALQELDSSNGALLPFYDPDTSVVYVCGKGDSSIRYFEITEEPPYIHFLNTFTSKEPQRGMGSMPKRGLEVSKCEIARFYKLHERKCEPIVMTVPRKSDLFQDDLYPDTAGPEAALEAEEWVSGRDADPILISLREAYVPSKQRDLKISRRNVLSDSRPAMAPGSSHLGAPASTTTAADATPSGSLARAGEAGKLEEVMQELRALRALVKEQGDRICRLEEQLGRMENGDA
IC50: 74 nM

Source: publication PMC2570342 (Cell, 2008)
